To fix the notation:
B1: Flag-USP36 wild type [not stated] / Myc-PrimPol WT [not stated] (parent)
chain 1: MPIVDKLKEALKPGRKDSADDGELGKLLASSAKKVLLQKIEFEPASKSFSYQLEALKSKYVLLNPKTEGASRHKSGDDPPARRQGSEHTYESCGDGVPAPQKVLFPTERLSLRWERVFRVGAGLHNLGNTCFLNATIQCLTYTPPLANYLLSKEHARSCHQGSFCMLCVMQNHIVQAFANSGNAIKPVSFIRDLKKIARHFRFGNQEDAHEFLRYTIDAMQKACLNGCAKLDRQTQATTLVHQIFGGYLRSRVKCSVCKSVSDTYDPYLDVALEIRQAANIVRALELFVKADVLSGENAYMCAKCKKKVPASKRFTIHRTSNVLTLSLKRFANFSGGKITKDVGYPEFLNIRPYMSQNNGDPVMYGLYAVLVHSGYSCHAGHYYCYVKASNGQWYQMNDSLVHSSNVKVVLNQQAYVLFYLRIPGSKKSPEGLISRTGSSSLPGRPSVIPDHSKKNIGNGIISSPLTGKRQDSGTMKKPHTTEEIGVPISRNGSTLGLKSQNGCIPPKLPSGSPSPKLSQTPTHMPTILDDPGKKVKKPAPPQHFSPRTAQGLPGTSNSNSSRSGSQRQGSWDSRDVVLSTSPKLLATATANGHGLKGNDESAGLDRRGSSSSSPEHSASSDSTKAPQTPRSGAAHLCDSQETNCSTAGHSKTPPSGADSKTVKLKSPVLSNTTTEPASTMSPPPAKKLALSAKKASTLWRATGNDLRPPPPSPSSDLTHPMKTSHPVVASTWPVHRARAVSPAPQSSSRLQPPFSPHPTLLSSTPKPPGTSEPRSCSSISTALPQVNEDLVSLPHQLPEASEPPQSPSEKRKKTFVGEPQRLGSETRLPQHIREATAAPHGKRKRKKKKRPEDTAASALQEGQTQRQPGSPMYRREGQAQLPAVRRQEDGTQPQVNGQQVGCVTDGHHASSRKRRRKGAEGLGEEGGLHQDPLRHSCSPMGDGDPEAMEESPRKKKKKKRKQETQRAVEEDGHLKCPRSAKPQDAVVPESSSCAPSANGWCPGDRMGLSQAPPVSWNGERESDVVQELLKYSSDKAYGRKVLTWDGKMSAVSQDAIEDSRQARTETVVDDWDEEFDRGKEKKIKKFKREKRRNFNAFQKLQTRRNFWSVTHPAKAASLSYRR
chain 2: MNRKWEAKLKQIEERASHYERKPLSSVYRPRLSKPEEPPSIWRLFHRQAQAFNFVKSCKEDVHVFALECKVGDGQRIYLVTTYAEFWFYYKSRKNLLHCYEVIPENAVCKLYFDLEFNKPANPGADGKKMVALLIEYVCKALQELYGVNCSAEDVLNLDSSTDEKFSRHLIFQLHDVAFKDNIHVGNFLRKILQPALDLLGSEDDDSAPETTGHGFPHFSEAPARQGFSFNKMFTEKATEESWTSNSKKLERLGSAEQSSPDLSFLVVKNNMGEKHLFVDLGVYTRNRNFRLYKSSKIGKRVALEVTEDNKFFPIQSKDVSDEYQYFLSSLVSNVRFSDTLRILTCEPSQNKQKGVGYFNSIGTSVETIEGFQCSPYPEVDHFVLSLVNKDGIKGGIRRWNYFFPEELLVYDICKYRWCENIGRAHKSNNIMILVDLKNEVWYQKCHDPVCKAENFKSDCFPLPAEVCLLFLFKEEEEFTTDEADETRSNETQNPHKPSPSRLSTGASADAVWDNGIDDAYFLEATEDAELAEAAENSLLSYNSEVDEIPDELIIEVLQE

Variants of B1 are the subject of the first experiment. The experiment in a line: co-immunoprecipitation (anti-Flag agarose beads), immunoblot band quantification. As to conditions: with Myc-PrimPol WT; USP36 stably knocked-down HEK293T cells; HU (10 mM) for 8 h; parent: 1.6; read off a plot; scale: relative band intensity. In general terms: A western blot detects proteins with antibodies after separation by electrophoresis.
As for chain 1 K329R K338R, the response came out at 1.6.

The experiment is the same for the next values; noted with them: with Myc-PrimPol WT; USP36 stably knocked-down HEK293T cells; untreated (Ctrl); parent: 1; read off a plot; scale: relative band intensity.
With chain 1 K329R K338R, the response was found to be 1.6.

The values above are taken from paper PMC7736794.
